B1: murine LPHN3^Lec-Olf, wild type, biotinylated at a C-terminal Avi-Tag [modified: biotin on the C-terminal Avi-Tag (enzymatic); biotin on the C-terminal Avi-Tag (enzymatic)] [murine] / murine FLRT2 full ectodomain, wild … (parent)
chain 1: PIPMAVVRRELSCESYPIELRCPGTDVIMIESANYGRTDDKICDSDPAQMENIRCYLPDAYKIMSQRCNNRTQCAVVAGPDVFPDPCPGTYKYLEVQYECVPYKVEQKVFLCPGLLKGVYQSEHLFESDHQSGAWCKDPLQASDKIYYMPWTPYRTDTLTEYSSKDDFIAGRPTTTYKLPHRVDGTGFVVYDGALFFNKERTRNIVKFDLRTRIKSGEAIIANANYHDTSPYRWGGKSDIDLAVDENGLWVIYATEQNNGKIVISQLNPYTLRIEGTWDTAYDKRSASNAFMICGILYVVKSVYEDDDNEATGNKIDYIYNTDQSKDSLVDVPFPNSYQYIAAVDYNPRDNLLYVWNNYHVVKYSLDFGPLD
chain 2: ACPSVCRCDRNFVYCNERSLTSVPLGIPEGVTVLYLHNNQINNAGFPAELHNVQSVHTVYLYGNQLDEFPMNLPKNVRVLHLQENNIQTISRAALAQLLKLEELHLDDNSISTVGVEDGAFREAISLKLLFLSKNHLSSVPVGLPVDLQELRVDENRIAVISDMAFQNLTSLERLIVDGNLLTNKGIAEGTFSHLTKLKEFSIVRNSLSHPPPDLPGTHLIRLYLQDNQINHIPLTAFANLRKLERLDISNNQLRMLTQGVFDHLSNLKQLTARNNPWFCDCSIKWVTEWLKYIPSSLNVRGFMCQGPEQVRGMAVRELNMNLLSCPTTTPGLPVFTPAPSTVSPTTQSPTLSVPSPSRGSVPPAPTPSKLPTIPDWDGRERVTPPISERIQLSIHFVNDTSIQVSWLSLFTVMAYKLTWVKMGHSLVGGIVQERIVSGEKQHLSLVNLEPRSTYRICLVPLDAFNYRTVEDTICSEATTHASYLNNGSNTASSHEQTTSHSMGSP

Variants of: B1
Assay: SPR
Details: with murine FLRT2 full ectodomain; for Kd: biotinylated LPHN3 Lec-Olf immobilized on streptavidin-coated Biacore chips, FLRT2 ectodomain injected as analyte, 1:1 binding model, parent: 18 nM; for response: maximum response at the highest FLRT2 ectodomain concentration plotted (about 2.3 µM), parent: 450, read off a plot

| Kd | response | Variant |
| --- | --- | --- |
| 980 nM | 460 RU | chain 1 PIPMAVVRRELSCESYPIELRCPGTDVIMIESANYGRTDDKICDSDPAQMENIRCYLPDAYKIMSQRCNNRTQCAVVAGPDVFPDPCPGTYKYLEVQYECVPYKVEQKVFLCPGLLKGVYQSEHLFESDHQSGAWCKDPLQASDKIYYMPWTNYTTDTLTEYSSKDDFIAGRPTTTYKLPHRVDGTGFVVYDGALFFNKERTRNIVKFDLRTRIKSGEAIIANANYHDTSPYRWGGKSDIDLAVDENGLWVIYATEQNNGKIVISQLNPYTLRIEGTWDTAYDKRSASNAFMICGILYVVKSVYEDDDNEATGNKIDYIYNTDQSKDSLVDVPFPNSYQYIAAVDYNPRDNLLYVWNNYHVVKYSLDFGPLD [chain 1 P153N R155T] |
| 460 nM | 400 RU | chain 1 PIPMAVVRRELSCESYPIELRCPGTDVIMIESANYGRTDDKICDSDPAQMENIRCYLPDAYKIMSQRCNNRTQCAVVAGPDVFPDPCPGTYKYLEVQYECVPYKVEQKVFLCPGLLKGVYQSEHLFESDHQSGAWCKDPLQASDKIYYMPWTPYRTDTLTEYSSKDDFIAGRPTTNYTLPHRVDGTGFVVYDGALFFNKERTRNIVKFDLRTRIKSGEAIIANANYHDTSPYRWGGKSDIDLAVDENGLWVIYATEQNNGKIVISQLNPYTLRIEGTWDTAYDKRSASNAFMICGILYVVKSVYEDDDNEATGNKIDYIYNTDQSKDSLVDVPFPNSYQYIAAVDYNPRDNLLYVWNNYHVVKYSLDFGPLD [chain 1 T176N K178T] |
